The text below walks through data of US20260218138A1, “ENGINEERED ACYLTRANSFERASES HAVING ALTERED SUBSTRATE SPECIFICITY” (KEZBIOSOLUTIONS GMBH, priority 2022, published 2026).

The nature of data set [1]: Enzyme-coupled assay: transfer of acyl-moieties from MMal-CoA to the ACP. The class given is biochemical. As to conditions: substrate MMal-CoA, acceptor ACP from murine FAS. As for the experimental part:
(§1) An enzyme-coupled assay was performed to analyze the transfer of acyl-moieties from CoA to the ACP. Four solutions were prepared as 4× concentrated stocks in the assay buffer. Solution 1 contained the acyltransferase at the concentration range of 0.01 μM-10 μM, depending on the transfer kinetics to achieve good signal to noise ratios. Solution 2 contained the enzyme-coupled system including 8 mM α-ketoglutaric acid, 1.6 mM NAD+, 1.6 mM TPP and 60 mU/100 μL αKGDH. Solution 3 contained the methylmalonyl (MMal)-CoA at concentrations between 0.1 μM and 1,000 μM and solution 4 contained the ACP from murine FAS as a standalone protein at 240 μM. 5 μL of Solutions 1-3 were pipetted into a 384-well Small Volume HiBase Microplates (Greiner Bio-one) and mixed manually. The reactions were started by adding solution 4 with the dispenser system of the microplate reader (ClarioStar, BMG labtech). The reaction progress was recorded using the following settings: 348-20 nm; emission: 476-20 nm; gain: 1500; focal height: 11.9 mm; flashes: 17; orbital averaging: off.

Data set [2] is described as follows: In-depth kinetics: enzyme-coupled assay, malonyl transfer from Mal-CoA to ACP. The class given is biochemical, murine. The settings on record: substrate A (Mal-CoA). As for the experimental part:
(§2) Y-axes show turnover in s^−1 and x-axes show substrate concentration in μM. Apparent kinetic parameters at a fixed acceptor concentration of ACP of 85 μM were determined by fitting the data points with the Michaelis-Menten function. Shown error bares reflect standard deviations from triplicates.
as §1
(§3) In-depth kinetic analysis results allowing a comparison of enzyme kinetic parameters for the transfer of malonyl-moieties from either Mal-CoA or 3-Oxo-3-[[2-[(1-oxohexyl)amino]ethyl]thio]-propanoic acid to the ACP are shown for a representative mutant (A35) herein. Enzyme kinetics were determined with the established enzyme-coupled assay for Mal-CoA kinetics and a variation of the new thiol quantifying assay using ThioGlo.
Enzyme-coupled assay was performed as described in Example 3 with 4× concentrated stocks. The enzyme concentration of A35 in Solution 1 was 4.2 μM, the substrate concentrations of Mal-CoA in Solutions 3 were between 8-400 μM and the acceptor concentration of ACP in Solution 4 was 340 μM.

Data set [3] is described as follows: In-depth kinetics: thiol quantification assay (ThioGlo), malonyl transfer from non-CoA substrate to ACP. In kind it is biochemical, murine. The procedure:
as §2
To verify the re-engineered mutant activity, having a substrate specificity altered from natural CoA substrates to non-CoA substrates, an alternative method to quantify specific turnover rates for non-CoA substrates was established. Such non-CoA substrates are not detectable by the enzyme-coupled assay. We used a thiol-sensitive fluorophore (ThioGlo4; Yi et al. 2009) to quantify the released free thiol groups from the substrate 3-Oxo-3-[[2-[(1-oxohexyl)amino]ethyl]thio]-propanoic acid after the enzyme-specific transfer of the malonyl moiety to a non-thiol acceptor. Briefly, three solutions were prepared in either a twofold concentration or as 4× concentrated stocks in the assay buffer. […] Free thiols were detected by adding 10 μL of 120 μM ThioGlo in the buffer 250 mM potassium phosphate, 1 mM EDTA and 10% glycerol, mixing and fluorescence detection at the microplate reader (ClarioStar, BMG labtech) using the following settings: 400-20 nm; emission: 465-20 nm; gain: 700; focal height: 12.5 mm; flashes: 20; orbital averaging: off. […]
as §3
A variation of the thiol quantification assay in Example 5 was established to be able to separate the liberated thiol groups from 3-Oxo-3-[[2-[(1-oxohexyl)amino]ethyl]thio]-propanoic acid after acyl-transfer from the thiol groups of the acceptor ACP. […]

The conditions of data set [4]: Comparative data from Rittner et al. 2018; cited from earlier work.
The mark [5] stands for this setting: acceptor ACP fixed at 85 μM, apparent parameters.
Where [6] appears, read: substrate B (3-Oxo-3-[[2-[(1-oxohexyl)amino]ethyl]thio]-propanoic acid), acceptor ACP fixed at 85 μM, apparent parameters.

Changes are numbered by the printed parent chain. In names and notes the source's numbering stands. Read-outs that look alike come from different tables or passages of the source.

B1: Mutant A05: engineered murine acyltransferase, mutation K186E (protein)
chain: NKRPLWFICSGMGTQWRGMGLSLMRLDSFRESILRSDEAVKPLGVKVSDLLLSTDERTFDDIVHAFVSLTAIQIALIDLLTSVGLKPDGIIGHSLGEVACGYADGCLSQREAVLAAYWRGQCIKDAHLPPGSMAAVGLSWEECKQRCPAGVVPACHNSEDTVTISGPQAAVNEFVEQLKQEGVFAEEVRTGGLAFHSYFMEGIAPTLLQALKKVIREPRPRSARWLSTSIPEAQWQSSLARTSSAEYNVNNLVSPVLFQEALWHIPEHAVVLEIAPHALLQAVLKRGVKSSCTIIPLMKRDHKDNLEFFLTNLGKVHLT
By Km is commonly meant the concentration of substrate that gives half-maximal velocity. Usually kcat stands for the number of substrate molecules converted per active site and unit of time at saturation. As for B1, in data set [1], the Km worked out at 14.2 µM and the turnover number (kcat) was determined as 0.101 s⁻¹.

B2: Mutant A14: engineered murine acyltransferase, mutations K186E R300D (protein)
chain: B1 chain with R300D
With B2, in data set [1], the Km was determined as 218 µM and the turnover number (kcat) is 0.051 s⁻¹.

B3: Mutant A08: engineered murine acyltransferase, mutation K285D (protein)
chain: B1 chain with E186K, K285D
Regarding B3, in data set [1], the Michaelis-Menten constant (Km) amounted to 0.11 µM and the kcat was 0.133 s⁻¹.

B4: Mutant A35: engineered murine acyltransferase, mutations T161L F184L R286L K186D R300D (protein)
chain: B1 chain with T161L, F184L, E186D, R286L, R300D
As to B4, the Michaelis constant (Km) in data set [2] (setting [5]) amounted to 25 µM; in data set [3] (setting [6]), 30 µM. For the same molecule, the values for the kcat in data set [2] (setting [5]) and in data set [3] (setting [6]) were 0.01 s⁻¹ and 5.75 s⁻¹, respectively. Besides, the Factor is listed as 1 in data set [2] (acceptor ACP, kcat/Km relative to substrate A) and 467 in data set [3] (substrate B (non-CoA substrate), acceptor ACP, kcat/Km relative to substrate A (Mal-CoA)).

B5: Mutant A01: engineered murine acyltransferase, mutation T161A (protein)
chain: B1 chain with T161A, E186K
Take B5: in data set [1], the Km was determined as 1.47 µM and the kcat stood at 0.051 s⁻¹.

B6: Mutant A07: engineered murine acyltransferase, mutation K186D (protein)
chain: B1 chain with E186D
Turning to B6, in data set [1], the Km came out at 18.6 µM and the turnover number (kcat) turned out to be 0.093 s⁻¹.

B7: Mutant A12: engineered murine acyltransferase, mutations K186D R300D (protein)
chain: B1 chain with E186D, R300D
Take B7: in data set [1], the Km amounted to 66.2 µM and the kcat amounted to 0.019 s⁻¹.

B8: Mutant A15: engineered murine acyltransferase, mutations K186E R300E (protein)
chain: B1 chain with R300E
With B8, in data set [1], the Km turned out to be 58.4 µM and the kcat was found to be 0.030 s⁻¹.

B9: Mutant A10: engineered murine acyltransferase, mutation R300D (protein)
chain: B1 chain with E186K, R300D
Consider B9, for which, in data set [1], the Michaelis constant (Km) came to 5.06 µM and the kcat is 0.582 s⁻¹.

B10: Mutant A04: engineered murine acyltransferase, mutations T161A F184A K186A R286A (protein)
chain: B1 chain with T161A, F184A, E186A, R286A
In the case of B10, in data set [1], the Michaelis-Menten constant (Km) worked out at 7.24 µM and the kcat was determined as 0.013 s⁻¹.

B11: Mutant A13: engineered murine acyltransferase, mutations K186D R300E (protein)
chain: B1 chain with E186D, R300E
Regarding B11, in data set [1], the Michaelis-Menten constant (Km) came out at 686 µM and the kcat amounted to 0.190 s⁻¹.

B12: Mutant A03: engineered murine acyltransferase, mutations T161A F184A R286A (protein)
chain: B1 chain with T161A, F184A, E186K, R286A
In the case of B12, in data set [1], the Michaelis-Menten constant (Km) was found to be 3.41 µM and the kcat stood at 0.021 s⁻¹.

B13: Mutant A02: engineered murine acyltransferase, mutation T161Y (protein)
chain: B1 chain with T161Y, E186K
With B13, in data set [1], the Km was found to be 38.8 µM and the turnover number (kcat) came out at 0.428 s⁻¹.

B14: (WT): wild type murine FAS malonyl-acetyl-transferase (MAT), no mutation (protein, listed as Mus musculus)
chain: B1 chain with E186K
In the case of B14, the Michaelis-Menten constant (Km) was 0.53 µM in data set [1] and 620 nM in data set [4]. In addition, the turnover number (kcat) in data set [1] is 1.297 s⁻¹; in data set [4], 4.000 s⁻¹.

B15: Mutant A11: engineered murine acyltransferase, mutation R300E (protein)
chain: B1 chain with E186K, R300E
On to B15, for which, in data set [1], the Km was 3.33 µM and the kcat was found to be 0.834 s⁻¹.
